Earlier results, collected in paper PMC7229808.

Target: PCNA (Saccharomyces cerevisiae) (UniProt P15873)
Test: NMR titration

UniProt P15873, sequence (P15873 whole entry): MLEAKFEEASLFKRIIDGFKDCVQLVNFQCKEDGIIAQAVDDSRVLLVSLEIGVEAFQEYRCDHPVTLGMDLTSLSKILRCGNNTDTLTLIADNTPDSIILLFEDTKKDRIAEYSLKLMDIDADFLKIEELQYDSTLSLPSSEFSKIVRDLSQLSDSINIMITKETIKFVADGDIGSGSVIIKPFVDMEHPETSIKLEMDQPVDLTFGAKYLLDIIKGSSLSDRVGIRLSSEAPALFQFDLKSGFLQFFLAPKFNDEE

- Kd: 78 µM
Substance: Rev1 BRCT (from UniProt P12689)
